Reference: publication PMC3637846 (Nature, 2013)
Numbering of substitutions follows the chain as printed.

Experiments:
[1] = biological target: CH505 transmitted/founder (T/F) Env gp140 (HIV-1 subtype C, CH505 (703010505) …, strain); assay: SPR
[2] = biological target: heterologous T/F Env C.1086 (HIV-1 subtype C, isolate 1086 (T/F), UniProt C6G099, strain); assay: ELISA

B1: inferred intermediate antibody I1 (antibody, V domains shown)
V domain 1: QVQLQESGPGVVKSSETLSLTCTVSGGSMGGTYWSWLRLSPGKGLEWIGYIFHTGHTNYSPSLKGRVSISVDTSEDQFSLRLRSVTAADTAVYFCASLPRGQLVNAYFRNWGRGTLVSVTA
V domain 2: SYELTQPPSVSVSPGQTATITCSGDKVASKNVCWYQVKPGQSPEVVMYENYKRPSGIPDRFSGSKSGSTATLTIRGTQATDEADYYCQVWDSFSTFVFGSGTQVTV
Question: Does B1 bind [1]?
Answer: Result: binds

B2: CH103 (full-length IgG1 recombinant mAb) (antibody, V domains shown)
V domain 1: B1 V domain 1 with H56E, T115S
V domain 2: SYELTQPPSVSVSPGQTATITCSGASTNVCWYQVKPGQSPEVVIFENYKRPSGIPDRFSGSKSGSTATLTIRGTQAIDEADYYCQVWDSFSTFVFGSGTQVTV
Question: Does B2 bind [1]?
Answer: Result: binds

B3: CH104 (full-length IgG1 recombinant mAb) (antibody, V domains shown)
V domain 1: B1 V domain 1 with S60N, K64E
V domain 2: B1 V domain 2 with P54A
Question: Does B3 bind [1]?
Answer: Result: binds

B4: CH103 unmutated common ancestor (UCA) mAb (antibody, V domains shown)
VH: QVQLQESGPGLVKPSETLSLTCTVSGGSISSYYWSWIRQPPGKGLEWIGYIYYSGSTNYNPSLKSRVTISVDTSKNQFSLKLSSVTAADTAVYYCASLPRGQLVNAYFDYWGQGTLVTVSS
VL: not shown
Question: Does B4 bind [2]?
Answer: Result: no binding
